This assay addresses T1, C. elegans SMG8c (SMG8 residues 1-423) (C. elegans, UniProt O62301 1-423).
T1 construct: SMG8, C. elegans, full length 873 residues; core fragment residues 1-423 (G-like domain and stalk); Selenomethionine-substituted protein (about 60% incorporation) was used for phasing; native crystals were soaked with GDP; SMG8 was insoluble when expressed in isolation; also called C.e; SMG8 1-423; CeSMG8
T1 sequence (looked up): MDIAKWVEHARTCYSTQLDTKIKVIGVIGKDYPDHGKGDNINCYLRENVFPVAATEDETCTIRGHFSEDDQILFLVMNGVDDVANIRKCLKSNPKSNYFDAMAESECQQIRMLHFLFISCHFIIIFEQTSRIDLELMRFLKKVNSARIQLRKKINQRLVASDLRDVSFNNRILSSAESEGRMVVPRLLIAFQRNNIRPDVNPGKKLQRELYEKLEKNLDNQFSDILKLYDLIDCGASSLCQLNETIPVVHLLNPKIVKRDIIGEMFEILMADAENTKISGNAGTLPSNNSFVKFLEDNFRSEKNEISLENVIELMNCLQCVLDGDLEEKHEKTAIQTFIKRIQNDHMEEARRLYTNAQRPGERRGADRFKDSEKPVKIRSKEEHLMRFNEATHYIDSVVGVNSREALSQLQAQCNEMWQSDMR
The assay can be described thus: crystal structure; coexpressed and co-purified SMG8c-SMG9c core complex; vapor diffusion, 10% PEG3350, 0.1M Tris pH 8.5, 0.11 mM YCl3; SeMet crystals (2.5 Å) and native crystals soaked with 10 mM GDP (2.65 Å); three copies of the complex in the asymmetric unit. The settings on record: both partners purified.

B1: C. elegans SMG9c (SMG9 residues 59-375) (domain or fragment, UniProt Q9XWJ1 59-375, looked up)
chain: MKESVRFLTDFGEISDAISDLLTSSPNFNVISAIGPQGAGKSTLLSMLAGNNSRQMYREYVFRPVSREANEQSRHQTIQIDIYIVNHQIFLDCQPMYSFSIMEGLPKVRGGRFDDSTAMSDTLRLTAFLLYVSHTVLVVSETHYDKVIIDTLRVAEQIRPYLAIFRPKLAIDRKTNLVFIKTKASSIDLAPTVIREREELLRLSFQDSRWLKVSQEPFKTLIVLEEIRVRREHLFEEGDEPDEAASLNEFDEQIAELREELQKNREDFTVETAAMDEKKWLDMCREVIRDKTLHKTLKEYQRAMTDGVRTHFDNGFH
notes: SMG9, C. elegans, full length 385 residues; core fragment residues 59-375 (G domain); Selenomethionine-substituted protein (about 60% incorporation) was used for phasing; native crystals were soaked with GDP; also called C.e; SMG9 59-375; CeSMG9c
As to B1, the binding result is given as “binds”.

Source of the values: publication PMC5473137, “Structure of a SMG8–SMG9 complex identifies a G-domain heterodimer in the NMD effector proteins” (RNA, 2017).
